Sequences and labels used below:
B1: His-tagged DisA (enzyme, Bacillus subtilis, UniProt P37573 1-360, looked up)
chain: MEKEKKGAKHELDLSSILQFVAPGTPLRAGMENVLRANTGGLIVVGYNDKVKEVVDGGFHINTAFSPAHLYELAKMDGAIILSDSGQKILYANTQLMPDATISSSETGMRHRTAERVAKQTGCLVIAISERRNVITLYQENMKYTLKDIGFILTKANQAIQTLEKYKTILDKTINALNALEFEELVTFSDVLSVMHRYEMVLRIKNEINMYIKELGTEGHLIKLQVIELITDMEEEAALFIKDYVKEKIKDPFVLLKELQDMSSYDLLDDSIVYKLLGYPASTNLDDYVLPRGYRLLNKIPRLPMPIVENVVEAFGVLPRIIEASAEELDEVEGIGEVRAQKIKKGLKRLQEKHYLDRQL
B2: RecA (native, untagged) (enzyme, Bacillus subtilis, UniProt P16971 1-348, looked up)
chain: MSDRQAALDMALKQIEKQFGKGSIMKLGEKTDTRISTVPSGSLALDTALGIGGYPRGRIIEVYGPESSGKTTVALHAIAEVQQQGGQAAFIDAEHALDPVYAQKLGVNIEELLLSQPDTGEQALEIAEALVRSGAVDIVVVDSVAALVPKAEIEGDMGDSHVGLQARLMSQALRKLSGAINKSKTIAIFINQIREKVGVMFGNPETTPGGRALKFYSSVRLEVRRAEQLKQGNDVMGNKTKIKVVKNKVAPPFRTAEVDIMYGEGISKEGEIIDLGTELDIVQKSGSWYSYEEERLGQGRENAKQFLKENKDIMLMIQEQIREHYGLDNNGVVQQQAEETQEELEFEE
notes: Bacillus subtilis recombinase RecA; purified protein of 38.0 kDa; The printed mass of 38.0 kDa fits the whole protein; also called native RecA; apo RecA; source: B. subtilis BG214 bearing pBT61-borne recA, over-expressed and purified

The experiment “RecA (native, untagged)” addresses B2. The experiment can be described thus: cell-based or functional assay.
The experiment “His-tagged DisA” has as its target B1. The experiment in a line: pull-down; His-tagged DisA and native RecA (1.5 μg each) loaded on a 50-μl Ni2+ microcolumn, room temperature, Buffer A (50 mM Tris-HCl pH 7.5, 50 mM NaCl, 10 mM MgCl2, 5% glycerol) with 20 mM imidazole, without ssDNA and ATP; eluted with 1 M NaCl and 400 mM imidazole; SDS-PAGE, Coomassie and Western blot. To be noted: both partners purified. On the technique in general: In western blotting, separated proteins are transferred to a membrane and probed.

Take B1: the “RecA-mediated three-strand DNA exchange with SsbA and RecO in ATPγS, fold reduction at a DisA:RecA molar ratio of 1:48” value with RecA (native, untagged) was roughly 18 fold.
In the case of B2, the binding result with His-tagged DisA was “binds”.
